pKd: −log10 of the molar value.
Target: N-terminal structural domain of human Nogo-B protein (hNogo-B-N), residues 1-185, with human Fc fragment (human) (UniProt Q9NQC3)
Assay: SPR

Chain of UniProt Q9NQC3 (Q9NQC3 1-185): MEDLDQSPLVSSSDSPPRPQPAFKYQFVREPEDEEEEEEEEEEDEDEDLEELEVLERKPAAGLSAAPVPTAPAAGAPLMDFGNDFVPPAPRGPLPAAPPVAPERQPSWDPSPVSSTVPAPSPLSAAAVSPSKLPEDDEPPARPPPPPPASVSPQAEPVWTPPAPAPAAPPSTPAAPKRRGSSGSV

pKd: 5.86
Substance: human proGCG protein (hproGCG) with C-terminal Strep-tag II (natural protein)
